Publication PMC9178005

Experiments:
[1] = target: Rob Cys281-Cy3B;RNA polymerase sigma70 holoenzyme (Escherichia coli;Escherichia coli, UniProt P0ACI0;P0A7Z4;P0A8V2;P0A8T7;P0A800;P00579 1-289;1-329;1-1342;1-1407;1-91;1-613, C147S;C247S|); assay: single-molecule FRET
[2] = target: Rob Cys281-Cy3B;biotinylated RNAP holoenzyme (Escherichia coli;Escherichia coli?, UniProt P0ACI0;P0A7Z4;P0A8V2;P0A8T7;P0A800;P00579 1-289;1-329;1-1342;1-1407;1-91;1-613, C147S;C247S|); assay: single-molecule FRET

Binder | binding result [1] | binding result [2]
micF DNA2-Cy5-biotin (bioDNA) (dsDNA, internal Cy5-dT in template strand) DNA 1: GTATTTGACAGCACTGAATGTCAAAACAAAACCTTCACTCGCAACTATAATGGGAGCTGTCACGGATGCAACTTTATTTATTACC DNA 2: GGTAATAAATAAAGTTGCATCCGTGACAGCTCCCATTATAGTTGCGAGTGAAGGTTTTGTTTTGACATTCAGTGCTGTCAAATAC | binds | 
micF DNA2-Cy5 (dsDNA, internal Cy5-dT in template strand) DNA 1: GTATTTGACAGCACTGAATGTCAAAACAAAACCTTCACTCGCAACTATAATGGGAGCTGTCACGGATGCAACTTTATTTATTACC DNA 2: GGTAATAAATAAAGTTGCATCCGTGACAGCTCCCATTATAGTTGCGAGTGAAGGTTTTGTTTTGACATTCAGTGCTGTCAAATAC |  | binds
